# Literature values as cited in publication PMC11231610, “Fatty acid binding to the human transport proteins FABP3, FABP4, and FABP5 from a Ligand’s perspective” (The Journal of Biological Chemistry, 2024).
# Biological target: Cgi-58 (Mus musculus) (UniProt Q9DBL9)
# Assay: MST
# Sequence of Cgi-58 (Mus musculus) (Q9DBL9 whole entry): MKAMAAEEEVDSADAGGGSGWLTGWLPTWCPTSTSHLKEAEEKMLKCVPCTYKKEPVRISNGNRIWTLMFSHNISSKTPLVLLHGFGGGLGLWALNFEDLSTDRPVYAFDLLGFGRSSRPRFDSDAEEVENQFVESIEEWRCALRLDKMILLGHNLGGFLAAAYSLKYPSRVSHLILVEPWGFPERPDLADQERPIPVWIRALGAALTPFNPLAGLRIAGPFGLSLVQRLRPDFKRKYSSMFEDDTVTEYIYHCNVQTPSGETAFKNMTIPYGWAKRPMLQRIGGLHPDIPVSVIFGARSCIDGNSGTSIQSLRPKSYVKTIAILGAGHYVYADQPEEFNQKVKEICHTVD
# Sequence of FABP4 (P04117 2-132): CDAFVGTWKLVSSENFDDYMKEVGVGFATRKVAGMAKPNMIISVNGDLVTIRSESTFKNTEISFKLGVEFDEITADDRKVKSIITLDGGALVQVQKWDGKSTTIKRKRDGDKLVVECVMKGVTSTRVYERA
substance,measurement,value
FABP4 (from UniProt P04117),Kd,192 µM
